One block for each molecule: values may come before it.
Experiments:
[1] = target: human TrkB on CHO cells (hTrkB-CHO cells) (human) (UniProt Q16620); assay: cell-based or functional assay
P75 = target: T1, P75 (Homo sapiens (Human), UniProt P08138 29-250); assay: ELISA on coated P75, antibody at 10 nM, 1 nM and 0.1 nM
T1 construct: also called P75 neurotrophin receptor; P75NTR
T1 sequence: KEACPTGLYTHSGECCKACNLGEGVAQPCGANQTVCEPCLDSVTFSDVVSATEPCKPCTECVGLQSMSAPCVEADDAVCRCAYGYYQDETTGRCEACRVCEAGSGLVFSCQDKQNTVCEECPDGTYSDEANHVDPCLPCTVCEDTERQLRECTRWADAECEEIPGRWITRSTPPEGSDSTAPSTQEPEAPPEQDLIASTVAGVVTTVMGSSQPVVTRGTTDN
Procedure: (§1) TrkB agonist antibodies can bind to TrkB specifically but not bind to TrkA, […], TrkC or P75 in ELISA assay. Data of exemplary antibodies TrkB-agoAb104, TrkB-agoAb202, TrkB-agoAb203, TrkB-agoAb303, TrkB-agoAb1104 and TrkB-agoAb2908 are shown in FIG. 1A-1F. 50 μL of […] protein was coated on each well of the plate, and 50 μL of 10 nM, 1 nM or 0.1 nM antibody was added to perform ELISA assay.

TrkA = target: T2, TrkA (Homo sapiens (Human), UniProt P04629 33-423); assay: ELISA on coated TrkA, antibody at 10 nM, 1 nM and 0.1 nM
T2 construct: also called Tyrosine Receptor A
T2 sequence (P04629 33-423 limits assumed): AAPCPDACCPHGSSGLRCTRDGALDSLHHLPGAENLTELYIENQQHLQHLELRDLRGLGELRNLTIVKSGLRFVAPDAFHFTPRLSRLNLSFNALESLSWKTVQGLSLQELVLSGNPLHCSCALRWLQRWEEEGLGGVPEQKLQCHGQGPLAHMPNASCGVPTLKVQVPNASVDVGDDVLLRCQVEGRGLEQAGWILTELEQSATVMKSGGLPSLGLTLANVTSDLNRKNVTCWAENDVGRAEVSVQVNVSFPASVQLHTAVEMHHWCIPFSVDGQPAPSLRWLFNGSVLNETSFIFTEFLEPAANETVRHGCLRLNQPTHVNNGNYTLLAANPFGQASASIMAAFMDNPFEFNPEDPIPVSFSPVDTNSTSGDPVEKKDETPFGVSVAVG
Procedure: as §1

[2] = target: T3, TrkB full length (FL, WT) conjugated with GFP, expressed in 293T cells (UniProt Q16620 32-822); assay: immunoprecipitation of GFP-tagged full-length and truncated TrkB from 293T lysates; binding domain
T3 construct: whole, on cells; The protein stood in cell lysate, not on whole cells; the numbering of the truncation (366-822) fits human TrkB; not shown: GFP
T3 sequence (Q16620 32-822): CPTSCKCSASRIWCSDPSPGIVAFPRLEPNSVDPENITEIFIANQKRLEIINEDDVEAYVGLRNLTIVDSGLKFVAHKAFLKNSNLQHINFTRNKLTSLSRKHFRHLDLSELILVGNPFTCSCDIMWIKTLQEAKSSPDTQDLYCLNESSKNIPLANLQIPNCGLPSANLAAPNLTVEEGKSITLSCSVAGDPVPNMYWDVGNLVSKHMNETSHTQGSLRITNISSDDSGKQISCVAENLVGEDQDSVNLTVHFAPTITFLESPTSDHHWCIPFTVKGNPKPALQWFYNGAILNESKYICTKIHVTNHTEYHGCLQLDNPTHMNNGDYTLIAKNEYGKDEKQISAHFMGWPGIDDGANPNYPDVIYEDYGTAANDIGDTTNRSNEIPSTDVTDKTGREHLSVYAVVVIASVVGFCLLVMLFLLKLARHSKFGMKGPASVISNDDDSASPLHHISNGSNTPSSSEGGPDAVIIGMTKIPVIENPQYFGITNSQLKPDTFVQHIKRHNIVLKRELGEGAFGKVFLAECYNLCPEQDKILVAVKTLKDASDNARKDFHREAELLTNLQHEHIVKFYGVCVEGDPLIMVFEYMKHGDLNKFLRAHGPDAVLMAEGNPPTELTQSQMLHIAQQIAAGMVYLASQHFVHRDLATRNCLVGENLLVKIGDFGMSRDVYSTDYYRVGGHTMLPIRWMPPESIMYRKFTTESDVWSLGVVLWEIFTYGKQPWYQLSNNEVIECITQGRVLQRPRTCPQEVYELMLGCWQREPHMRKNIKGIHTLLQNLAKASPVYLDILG
Procedure: Cell were washed by cold PBS for 3 times and were lysed in buffer containing 50 mM Tris-HCl (pH 8.0), 250 mM NaCl, 1% NP-40, 0.5% deoxycholate, 0.1% SDS, and protease inhibitors (4693132001, Roche) (Roche Diagnostics) for 20 min on ice. After centrifugation to remove insoluble material, the proteins in lysate incubated with target protein over night at 4° C. 20 μl Protein A beads (sc-2003, Santacruz) were added to the protein mixture. After these mixture incubated for 4-5 h at 4° C., we washed beads for 3 times with lysis buffer. Then the supernatant was removed and 20 μl loading buffer was added to the deposit beads. The beads coupled proteins were denatured and uncoupled by 95° C. heat for 10 min.
Five extracellular domain truncated TrkB constructs were designed as shown in FIG. 2A and transfected to 293T cell for expression respectively. The lysate were collected. Immunoprecipitation was used to test the antibodies that cannot bind to truncated TrkB conjugated with GFP (see FIG. 2B). […] The others such as TrkB-agoAb418 antibody may bind to D5 domain. Δ1 lacks D1 domain (represented by Cys 1), Δ2 lacks D1 and D2 (represented by LAM) domains, Δ3 lacks D1-D3 (represented by Cys 2) domains, Δ4 lacks D1-D4 (represented by Ig1) domains, and Δ5 lacks D1-D5 (represented by Ig2) domains. “TM” represents transmembrane domain, “C” represents control (blank, empty vector). FL represents full length gene (WT).

[3] = target: T4, human TrkB on CHO cells (hTrkB-CHO cells) (human, UniProt Q16620 32-822); assay: cell-based or functional assay
T4 sequence (Q16620 32-822): as above

[4] = target: T4, human TrkB on CHO cells (hTrkB-CHO …); assay: cell-based or functional assay; remark: listed apart in the source
[5] = target: T5, human TrkB (recombinant protein coated in ELISA / immobilised in Biacore) (human, UniProt Q16620 30-430, limits assumed); assay: Biacore T200 SPR, target protein on CM5 chip, antibody in 7 dilutions as fluid phase
T5 construct: also called target protein; antigen
T5 sequence (Q16620 30-430 limits assumed): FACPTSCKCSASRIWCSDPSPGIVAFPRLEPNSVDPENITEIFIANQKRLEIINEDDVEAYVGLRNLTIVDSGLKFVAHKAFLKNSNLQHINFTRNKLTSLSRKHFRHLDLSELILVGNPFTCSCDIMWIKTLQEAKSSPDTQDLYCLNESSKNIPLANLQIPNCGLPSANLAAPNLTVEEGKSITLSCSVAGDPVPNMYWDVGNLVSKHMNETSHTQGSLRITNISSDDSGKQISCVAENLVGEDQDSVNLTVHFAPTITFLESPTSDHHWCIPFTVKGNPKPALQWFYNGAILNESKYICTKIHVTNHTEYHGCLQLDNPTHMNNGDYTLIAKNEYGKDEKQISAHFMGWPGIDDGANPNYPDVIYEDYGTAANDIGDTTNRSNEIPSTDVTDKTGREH
Procedure: Wash CM5 chip in PBS with sonication. Replace the buffer of candidate antibodies and the target protein with the same PBS. The target protein was diluted to 1 μg/μL as the solid phase and the candidate antibodies were serial diluted to 7 dilutions as the fluid phase. After obtaining the signal, Biacore Evaluation Software was used to create fitting curves. ch2<Rmax/10 indicates good confidence level.
Biacore was used to analyze the affinity of antigen-antibody interaction.

[6] = target: T4, human TrkB on CHO cells (hTrkB-CHO …); assay: cell-based or functional assay; remark: listed apart in the source

Sequence of human TrkB on CHO cells (hTrkB-CHO cells) (human) (Q16620 32-822): as the sequence (Q16620 32-822) above

Molecule: brain-derived neurotrophic factor (BDNF) (from UniProt P23560 129-247) (ligand)
EC50 of TrkB Try515 phosphorylation, Alphalisa, hTrkB-CHO cells treated 30 min [1]: 1.39 nM

B1: TrkB-agoAb2908 (antibody, IgG1, V domains shown)
VH: QVQLQQSGPELVKPGASVKISCKASGYTFSSSWMNWVKQRPGQGLEWIGRIYPGDGHTNYNGKFKGKATLTADKSSSTAYMQLTSLTSVDSGVYFCARSGYGYGFDCWGQGTTLTVSS
VL: NIVLTQSPASLAVSLGQRATISCRASESVDNYGNSLMHWYQQKPGQPPKLLIYLASNLESGVPARFSGSGSRTDFTLTIDPVEADDAATYYCQQNNEDPPWTFGGGTKLEIKR
binding result (P75): no binding (tested: 10 nM) | binding result (TrkA): no binding (tested: 10 nM)

B3: TrkB-agoAb1104 (antibody, IgG1, V domains shown)
VH: QVQLQQSGAELARPGASVKLSCKASGYTFTRYWMQWVKQRPGQGLEWIGAIYPGDGDTRYTQKFKGKATLTADKSSSTAYMQLSSLASEDSAVYYCAGSGLGRAWFTYWGQGTLVTVSA
VL: DIQMTQSPASLSASVGETVTITCRSSENIYSYLAWYQQKQGKSPQLLVYNAKTLAEGVPSRFSGSGSGTQFSLKINSLQPEDFGSYYCQHHYGPPYTFGGGTKLEIK
binding result [2]: binds | binding result (P75): no binding (tested: 10 nM) | binding result (TrkA): no binding (tested: 10 nM)

B4: TrkB-agoAb203 (antibody, V domains shown)
VH: DVKLVESGGGLVKPGGSLKLSCAASGFTFSSYTMSWVRQTPEKRLEWVATISSGGDYTYFPDSVKGRFTMSRDNAKNALYLQMSSLKSEDTAMYYCTRESGRGDFDYWGQGTTLTVSS
VL: DVLMTQTPLSLPVSLGDQASISCRSSQNIVHSNGNTYLEWYLQKPGQSPNLLIYNVSNRFSGVPDRFSGSGSGTDFTLKISRVEAEDLGVYYCFQGSHFPWTFGGGTKLEIT
EC50 of TrkB Try515 phosphorylation, Alphalisa, hTrkB-CHO cells treated 30 min [3]: 2.84 nM | in vitro half life (T1/2) from the time course of TrkB phosphorylation, Alphalisa, cells treated at EC50 [4]: > 24 h | Kd [5]: 0.0529 nM

B5: TrkB-agoAb303 (antibody, V domains shown)
VH: B4 VH
VL: B4 VL
notes: Mouse monoclonal antibody
EC50 of TrkB Try515 phosphorylation, Alphalisa, hTrkB-CHO cells treated 30 min [3]: 1.33 nM | binding result (P75): no binding (tested: 10 nM) | in vitro half life (T1/2) from the time course of TrkB phosphorylation, Alphalisa, cells treated at EC50 [4]: > 24 h | binding result (TrkA): no binding (tested: 10 nM) | EC50 (read off the curve) [6]: ~1 nM | Kd [5]: 4.02 nM

Further lines, results first:

binding result [2]: binds
B2: TrkB-agoAb5702 (antibody, IgG1, V domains shown)
VH: DVQLVESGGGLVQPGGSRKLSCAASGFTFSSFGMHWVRQAPEKGLEWVAYITSGSNTIYYADTVKGRFTISRDNPKNTLFLQMTSLRSEDTALYYCARDGYFLDALDYWGQGTSVTVSS
VL: DVQITQSPSYLAASPGETITINCRASKSISKYLAWYQEKPGKTNKLLIYSGSTLQSGIPSRFSGSGSGTDFTLTISSLEPEDFAMYYCQQHNEFPLTFGAGTKLELK

binding result [2]: binds
B6: TrkB-agoAbB901 (antibody, IgG2, V domains shown)
VH: EVKLVESGGGLVQPGGSLKLSCAASGFDFSRYWMSWVRQAPGKGLEWIGEINPDGSTINYTPSLKDKFIISRDNAKNTLYLQMSKVRSEDTALYYCARGNYYGSSLAWFAYWGQGTLVTVSA
VL: DIQMTQSPASQSASLGESVTITCLASQTIGTLLAWYQQKPGKSPQLLIYAATTLADGVPSRFRGSGSGTKFSFKISSLQAEDFVSYYCQQFYSTPYTFGGGTKLEIK
notes: also called TrkB-agoAb901

binding result [2]: binds
B7: TrkB-agoAb6916 (antibody, V domains shown)
VH: QVQLQQSGTELMKPGASVKISCKAAGYTISSYWVEWVKQRPGHGLEWIGEILPGGGSTNYNEKFKGKATFTADISSNTAYMQLSNLTSEDSAVYYCASSDYWFAYWGQGTLVTVSA
VL: QIVLTQSPAIMSASPGEKVTMTCSASSSINYTHWFQQKPGTSPKRWIYDTSKLASGVPVRFSGSGSGTSYSLTISSMEAEDAATYYCHQRSSYPWTFGGGTKLEIK
notes: Mouse monoclonal antibody

Reference: US20210269531A1 (TSINGHUA UNIVERSITY, published 2021)
